In a protein production outcome set (Wang et al. 2014):

Assay: label from the status in PepcDB records
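Further: failed if final PepcDB status was selected cloned or expressed and not failed if soluble or beyond.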

| Sequence | protein production |
| --- | --- |
| MLHYQIEFDDYRQHLVHVTLRFLADPNQELWLPTWIPGSYLIREFSKHIESVQAYDEAGRILEIKKQQKNRWRLFNTDHELITVEYDAYAYDLSVRGAYVDQTRLYINPACVCLALGGQEEKACEVELFLPQELKHFQLATGLPSKSLVKGRFTLKAENYDQLIDSPFELAEQTRFSFEAGNIAHEMVISGIHATNTERLKNDLEKICATEVALFGSAPFQNYTFMTMATGNSYGGLEHCNSTSLIIPRTDLPKLNEPEEPSEDYQRFLGLCSHEYFHSWLVKFIRPENFARYNLNQESYTSLLWIFEGFTSYYDDLILLRSGVISQESYLKLLKAQIDRYLQNPGRQIQSVAESSFDAWIKFYRQDENSNNAGTSYYNKGCLVALCLDLGLRLRGSSLDALLRLLYQNTEKGVQVNERTIFELCQQLTGDSWIEQINHLINTTDELPLDQLFPEFGLSYALKHDKKMPFGMKLQDKPEGVMVQQVNRYGAAATAGLSAQDVIIAIDGLKASEKLLATYAKQQGIITILAFRRDELMSFEVERSTIDLAEVELVVQDQSKADHWLKV | failed |
| MTTHITKAPAYWSRDAIWPGIVAVGPMLPGTLAFGMAFGALCAQKNFTLAEVEVMMATVYGGLSQFVAVQAWPDQLTPSTIAALALLTTTVNIRFFLMTASMRPWFGTLPAWQAYPPLLLVTDGGWLAAMRYREHGGANAWFYLGGALVLYLVWLVSAIPGFLLAEQLADPKKFGVDIAMPAFFAALLVPAWKGPRRAIPWLVSGIVALTVHWLIPGYWFIIAGALSGAITAGLMDEPPVATSHAGHSS | failed |
| MATDTTVQLRAGWQGRFYEDFAVGDVYKHPYGRTVTETDNVWFTNLTMNANPMHFNAAYASGTEFDERLVNGLFVIALSVGMSVVDVSANATANLGYDDIQHHAPVFHGDTLFAESEVLSKRESESRPHVGMVTTELRTYTQDGELVLSLERTPMVRKRGAADPLEHHHHHH | failed |
| MGFLQRISLMITSLIILHTIPSTTSISITPDAPTMILIDSICVNTKNMYYCEQSIISKLGNPHAEIKTIADIAAFNAVYLITSAGNYIRDKFIPIAENPLVKNQLVLCLATYRAVQKLLEGAYLADRRGDYSDMRHYQSSVLGMLDNCKTDFDYMVRTNWGVRLMINISLLATRQLPAQ | failed |
| MSLQVEGLSINLATIREQCGFAEAVDICLKHGITAIAPWRDQVAAIGLGEAGRIVRANGLKLTGLCRGGFFPAPDASGREKAIDDNRRAVDEAAELGADCLVLVAGGLPGGSKNIDAARRMVVEGIAAVLPHARAAGVPLAIEPLHPMYAADRACVNTLGQALDICETLGPGVGVAIDVYHVWWDPDLANQIARAGKMKAILAHHICDWLVPTKDMLTDRGMMGDGVIDLKGIRRRIEAAGFHGAQEVEIFSADNWWKRPADEVIATCVERYRNEGHHHHHH | not failed |
| SAASQAGSNYPRCWNCGGPWGPGREDRFFCPQCRALQAPDPTRDYFSLMDCNRSFRVDTAKLQHRYQQLQRLVHPDFFSQRSQTEKDFSEKHSTLVNDAYKTLLAPLSRGLYLLKLHGIEIPERTDYEMDRQFLIEIMEINEKLAEAESEAAMKEIESIVKAKQKEFTDNVSSAFEQDDFEEAKEILTKMRYFSNIEEKIKLKKIPL | not failed |
| MIELRNELPGGEVHAAWHLRYAGHDFFVKCDEREMLRGFTAEADQLELLSRSKTVVVPKVWAVGSDRDYSFLVMDYLSPRPLDAHNAFILGQQLARLHQWSDQPQFGLDFDNALSTTPQPNTWQRRWSTFFAEQRIGWQLELAAEKGITFGNIDAIVEHVQQRLASHQPQPSLLHGDLWSANCALGPDGPYIFDPACYWGDRECDLAMLPLHTDQPPQIYDGYQSVSPLPLDFLDRQPIYQLYTLLNRARLFGGQHLATAQKAMDRLLAVLEHHHHHH | failed |
| MSTQDERQINTEYAVSLLEQLKLFYEQQLFTDIVLIVEGTEFPCHKMVLATCSSYFRAMFMSGLSESKQTHVHLRNVDAATLQIIITYAYTGNLAMNDSTVEQLYETACFLQVEDVLQRCREYLIKKINAENCVRLLSFADLFSCEELKQSAKRMVEHKFTAVYHQVAFMQLSHDLLIDIFSSDNLNVEKEETVREAAMLWLEYNTESRSQYLSSVLSQIRIDALSEVTQRAWFQGLPPNDKSVVVQGLYKSMPKFFKPRLGMTKEEMMIFIEASSENPCSLYSSVCYSPQAEKVYKLCSPPADLHKVGTVVTPDNDIYIAGGQVPLEKHKNKSQ | failed |
| MKIKKNMIKGILLTTIVSFLAKIAADYLPSLGGEAIAMLLGILIGNTVFKDEKWMPGIKWAEKFPIEIGIALMGLTVTLRTISSLKIQGVIFILFQMMATILFVLWVGRRFIKVPSESAMLMASGNAVCGSSAIAAVAPAIRASDDQRRTAVATVSLSGVVLLFLLPVIGPNIFHGNNLLIGALIGGTVQSVGQVVGTASLVNQAVVTYATLFKMLRVILLSVVVFVFARFADRTRADEIKTDSKKVAVPWFVIVFIIFVFINSFFNLSNTVNTGAKSIANFFGIVNLAGIGLNLKWQTVKNSGQKFMIYGLVTVCFQILFAVLMINVLFG | failed |
| MAVNPATGKSDFVMMSEQQELGMGARYNQEILKQFPRYNDEKLQAYVQRVGERVARSSHRSNLQYHFTVIDSPDINAFALPGGYIYIHRGLIAYLGSEAELAAVLGHEVGHVTARHSVRQQSQASAWNILGQAVAIGTGVGAAGDLANVLGTAFVRGYGRDMELEADGLGAQYLARAGYDPTAMIQVVRVLKNQEDFAREEAARNGQAVQAGGYHGLFDTHPDNDRRLQEVVGPARQLANGQQEVGREVFLRHLEGMPFGDSASAGVRRGQNFYHAELDFTLSYPAGWKILNQPSALLGYPADEQSFIGMKLVPHDSRLTPAEFLRKNAGQRLAQEESLKQAGLNGYTAVVPGNPARRVAVIYQGDRAYLFVGVVKVGSLETQDDRFLSVIRSFRPLRDKERALAQPRRLHLVQVKAGQTLEQLAAGGEGSLSDSVARLRLLNDLYPSGEPRPGDWLKVVRLEHHHHHH | failed |
| MKLIDLHVHSYHSDGVLAPAVLVAMAAERGLASLAIADHDAVDGIDEAVAEGVRLGVDVIPAVELSVELGRFSDLHILGYCIDHHDPAFRDKLAGFRSARDNRGKAILEKINRRLLHSRKAPLSYDEVLSMAGGAVGRPHIGRVLVDNGYARDMEDAFRRYLIPCNVPKRYMPAGEAIAEIRRIGGVSVLAHPPTITDDRRRLRQVVEQLAQLGLDGLEVFNNLCFKDDMLYLERLAEEFGLLMTGGSDFHGFEDDVELGRGRGGLAVAHSLAEKVKELAAQRKHSHA | failed |
| MSLEDRKNERLPSDLARRATAIIEMPDGVLVTASRGGRYNLPGGKANRGELRSQALIREIREETGLRINSMLYLFDHITPFNAHKVYLCIAQGQPKPQNEIERIALVSSPDTDMDLFVEGRAILRRYARLRNEETAKGEALRALLGLARYIAKVDEGHHHHHH | not failed |
| LKRDFIILGNGPRLQNSTYQCKHCDSKLQSTAELTSHLNIHNEEFQKRAKRQERRKQLLSKQKYADGAFADFKQE | not failed |
| MNLHTKTWVQRLPVPIDVAWDFFSQPGNLARITPPEMMLKAEGGNAGTAIYEGMKLNFVLYPFMMIPVRWTTEIMKVSKPDFFEDRQLSGPYEQWYHRHLFRDIEGGTEMTDIVEYALPFDLFGEVVEALIVGPRLDEVFEYRRCRVAEILGLEHHHHHH | failed |
| MKGENMMVKLIALYEQPEDKQAFDEHYFNTHAPLTRKIPGLRDMKVTRIVGSPMGESKFYLMCEMYYDDHESLQQAMRTDEGKASGKDAMKFAGKLLTLMIGEEMDE | not failed |
| MEAAVNAAEAYSHIRAVMGMVVGLSLARLLTGLAGFVQHPKKERIYLLHIGWVAFLFLMLVHFWWWEHRLSATGHVLDFGAFLFLILFCSLFYFLCVLLFPTDMKEYKGYEDYFFSRKSWFFAFLAALFVTDVGDTLLKGHDYLASLGPEYLIRTAIYVVLFTAAAFIDNRRFHRFLVIFALVYQIAWIFRTYDLLA | failed |
| MEPITQAFAQQFSREWIDAWNAHDLDAILSHYADGFEMSSPMIVQIAGEPSGRLRGKEQVGAYWREALRMIPDLHFEWIATLAGVDSVAIHYRGAKGRLALEVFHFGPDRRVVKALAHYAG | not failed |
| MKAIITVVGKDKSGIVAGVSGKIAELGLNIDDISQTVLDEYFTMMAVVSSDEKQDFTYLRNEFEAFGQTLNVKINIQSAAIFEAMYNI | not failed |
| MGNHAGKRELNAEKASTNSETNRGESEKKRNLGELSRTTSEDNEVFGEADANQNNGTSSQDTAVTDSKRTADPKNAWQDAHPADPGSRPHLIRLFSRDAPGREDNTFKDRPSESDELQTIQEDSAATSESLDVMASQKRPSQRHGSKYLATASTMDHARHGFLPRHRDTGILDSIGRFFGGDRGAPKRGSGKVSSEE | failed |
| MEGPLNLAHQQSRRADRLLAAGKYEEAISCHRKATTYLSEAMKLTESEQAHLSLELQRDSHMKQLLLIQERWKRAKREERLKAH | not failed |
| MDGYNIFIVLLAVYIAGLVAIGWYFNKKQKSVTDFWLAGRRIGPSALGFSAAASWLTAGGILAVIGYYMLQGMGSIWAFVAPNILALLIIALLVGKIKNLPAITQPELLEQRYGSAVRWPIALIITVVMILFAVADVTGFSLVLQVFYGVDPLYAAAIVAIAVSLYVTMGGLSAVVWTDVVQFAFLSIFTIAMAFAAVGTVADGGLNTPAISSSELFGNVSYDWWNPLSIGIPMVLIFVFAIIPGWITEQDPWQKVWAAKDAKSARLGMVFGSLMITVVFAACAVIAIAFNNIYPDIAGMGFPAGMAQAEPALLAFVSERFVSAPLIVALSAIGLAAASMSCADTFATSGASCISRDIFQRYIKPDATMKEMLVVNRISVLIIVLAATAGSFVIPNIIDAIHIATFIASASYFFPLMGGLYWKRATKEGAFAGMVVGFVVQVTLVSLDLIKTPPMAANYLESVHPALMSHGVIVGMGLSAIAFFGVSLMTKPSSRINLAPFFEEEAEELAHYEAREIDEKDPTYGAFLKNVDEKVAGERAHLQLNLRASGALSWHELVEKLKSSSPAWVTPTGLDSVYRLTHGDMLACVTVTRGSEERDIWLKAEPRLETVGRQKKELFTAYEELKKVLGQKGVNLDFY | failed |
| MMKEMTVQQMTEKVLNKESLFILDVRNESDFRDWKIEGENFAYLNVPYFELVHGVDSIVDRLPKDQDIVVVCAKGGSAAFVAEQLAEAGFDNVYTLAGGMQAWSEHLHQAKVYEDDQLKIYQFIRVGKGCLSYMVLSGDEALVVDPLRFIDVYEQVAQQEGVTITHIVDSHLHADHLSGGKALAERTGAAYYLMKSEGAVFDFEPLEQHETIDFENVHLEVLAVKTPGHTPGSVSFFVNGKWLFSGDTIFVGGLGRPDLGGKVAEWAEDLYHTVYEKVAAMADDVIVLPAHYANLDEEINAEGYVGDTLGRIRARNEMMQNKAKDEFIDLVIQGAKTETPPNFEDIVAINRGLKTVDIETQRELEIGPNRCALHHTHA | failed |
| MTLRTRITLLTAGLLLVAFLVLGFALEGLLRNFLYGSLRTDLKEAANQVVRLLNLGGQALLEAGLPPSLYAEVQLLPEEDPALLAREGGISLQKSPALGSQRLLLQEEAYRELLKRGEVWAYAELPREGHPLRLLVYARKVEVNLSGSVWKGALLVGRPTEDLEATLSQFARIYAGTALFVLLLSLFLARGLVARALEPLEWAARKAEAMSARPEPLPEPETRDEVAALVKALNGMLTRLQEAFEAQTRFLQDASHELRTPITAILGHVGYLLRRTPLTEAQRESLEVVKREAERMGKLVSDLLDLSQSGTWRIRPVPVRVLDLLEEVREEFAKSFDGAILVEAPEDLYVLGDPDRLHQVMANLVSNALKAGARHVWLRAFDLGDKAVVRVEDDGEGIPEEHLPHLFERFYRVDKARDRERGGSGLGLAIVKAILEAHGGEVWVESQVGKGTAFSFSLPASGPPPPPR | failed |
